Laboratory results from publication PMC10397247.
Where two headings read alike, the source gives them in different places. Blank lines part the entries; values can stand above or below the binder they belong to.

Columns and labels:
P9-AA = biological target: T1, P9-AA; experiment: two-hybrid library CCmax;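 note: natural log of median RNA to DNA barcode read ratio; higher means stronger binding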
T1 chain: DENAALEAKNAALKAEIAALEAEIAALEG

zCON9_B = biological target: T2, zCON9_B; experiment: two-hybrid library CCmax;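 note: natural log of median RNA to DNA barcode read ratio; higher means stronger binding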
T2 chain: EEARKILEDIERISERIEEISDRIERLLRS

zCON9_A = biological target: T3, zCON9_A; experiment: two-hybrid library CCmax;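 note: natural log of median RNA to DNA barcode read ratio; higher means stronger binding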
T3 chain: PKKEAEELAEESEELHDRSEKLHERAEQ

zCON9_D = biological target: T4, zCON9_D; experiment: two-hybrid library CCmax; conditions: mean of both orientations;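 note: natural log of median RNA to DNA barcode read ratio; higher means stronger binding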
T4 chain: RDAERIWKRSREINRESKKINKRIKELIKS

P4-AA = biological target: T5, P4-AA; experiment: two-hybrid library CCmax;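 note: natural log of median RNA to DNA barcode read ratio; higher means stronger binding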
T5 chain: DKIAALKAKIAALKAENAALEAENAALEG

P7-AA = biological target: T6, P7-AA; experiment: two-hybrid library CCmax; conditions: mean of both orientations;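 note: natural log of median RNA to DNA barcode read ratio; higher means stronger binding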
T6 chain: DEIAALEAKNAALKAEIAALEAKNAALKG

P8-AA = biological target: T7, P8-AA; experiment: two-hybrid library CCmax
T7 chain: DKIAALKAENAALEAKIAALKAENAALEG

4H906-bN = biological target: T8, 4H906-bN; experiment: two-hybrid library CCNG1
T8 chain: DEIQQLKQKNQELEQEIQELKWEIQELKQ

4H3974-bN = biological target: T9, 4H3974-bN; experiment: two-hybrid library CCNG1
T9 chain: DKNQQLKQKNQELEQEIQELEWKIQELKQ

4H619-bN = biological target: T10, 4H619-bN; experiment: two-hybrid library CCNG1
T10 chain: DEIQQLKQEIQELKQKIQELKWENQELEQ

4H584-bN = biological target: T11, 4H584-bN; experiment: two-hybrid library CCNG1
T11 chain: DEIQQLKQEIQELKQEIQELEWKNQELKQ

4H570-bN = biological target: T12, 4H570-bN; experiment: two-hybrid library CCNG1
T12 chain: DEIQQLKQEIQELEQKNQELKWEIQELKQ

4H3858-bN = biological target: T13, 4H3858-bN; experiment: two-hybrid library CCNG1
T13 chain: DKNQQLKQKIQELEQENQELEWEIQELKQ

4H850-bN = biological target: T14, 4H850-bN; experiment: two-hybrid library CCNG1
T14 chain: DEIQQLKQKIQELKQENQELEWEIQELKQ

4H3817-bN = biological target: T15, 4H3817-bN; experiment: two-hybrid library CCNG1
T15 chain: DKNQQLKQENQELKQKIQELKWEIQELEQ

O9-bS = biological target: T16, O9-bS; experiment: two-hybrid library CCNG1
T16 chain: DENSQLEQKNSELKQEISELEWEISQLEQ

O8-bS = biological target: T17, O8-bS; experiment: two-hybrid library CCNG1
T17 chain: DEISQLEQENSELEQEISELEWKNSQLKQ

P3-AA = biological target: T18, P3-AA; experiment: two-hybrid library CCmax
T18 chain: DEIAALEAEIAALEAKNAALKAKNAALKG

P10-AA = biological target: T19, P10-AA; experiment: two-hybrid library CCmax; conditions: mean of both orientations
T19 chain: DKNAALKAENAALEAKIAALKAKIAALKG

P11-AA = biological target: T20, P11-AA; experiment: two-hybrid library CCmax; conditions: mean of both orientations
T20 chain: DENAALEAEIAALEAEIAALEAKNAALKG

GCN2_T = experiment: two-hybrid library CCmax
P2-AA = biological target: T21, P2-AA; experiment: two-hybrid library CCmax; conditions: mean of both orientations
T21 chain: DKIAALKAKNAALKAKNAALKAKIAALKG

AP8-AA = biological target: T22, AP8-AA; experiment: two-hybrid library CCmax; conditions: mean of both orientations
T22 chain: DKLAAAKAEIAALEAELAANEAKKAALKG

AP7-AA = biological target: T23, AP7-AA; experiment: two-hybrid library CCmax; conditions: mean of both orientations
T23 chain: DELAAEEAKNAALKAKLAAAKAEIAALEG

P12-AA = biological target: T24, P12-AA; experiment: two-hybrid library CCmax; conditions: mean of both orientations
T24 chain: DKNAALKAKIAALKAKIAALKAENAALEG

P1-AA = biological target: T25, P1-AA; experiment: two-hybrid library CCmax; conditions: mean of both orientations
T25 chain: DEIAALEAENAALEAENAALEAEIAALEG

interaction score (P9-AA): -1.97
interaction score (zCON9_B): -1.59
interaction score (zCON9_A): -1.13
interaction score (zCON9_D): -1.94
Binder: DENAALEAKNAALKAEIAALEAEIAALEG [P9-AA]

interaction score (P9-AA; mean of both orientations): -1.18
interaction score (P4-AA): -2.32
interaction score (P7-AA): -1.41
interaction score (zCON9_B; mean of both orientations): -1.1
interaction score (zCON9_A): -1.68
interaction score (P8-AA; mean of both orientations): -1.82
interaction score (zCON9_D): -3.43
Binder: DKIAALKAKIAALKAENAALEAENAALEG [P4-AA]

interaction score (P9-AA; mean of both orientations): -0.207
interaction score (zCON9_B; mean of both orientations): -1.66
interaction score (zCON9_A): -1.74
interaction score (P8-AA): -1.57
interaction score (zCON9_D): -1.98
Binder: DKIAALKAENAALEAKIAALKAENAALEG [P8-AA]

interaction score (4H906-bN): -1.83
interaction score (4H3974-bN): -0.487
interaction score (4H619-bN): -0.743
interaction score (4H584-bN): -2.15
interaction score (4H570-bN): -1.92
interaction score (4H3858-bN): -0.555
interaction score (4H850-bN): -0.947
interaction score (4H3817-bN): -0.754
Binder: DKNQQLKQENQELKQKIQELKWEIQELEQ [4H3817-bN]

interaction score (O9-bS): -0.376
interaction score (O8-bS): -2.12
Binder: DEISQLEQENSELEQEISELEWKNSQLKQ [O8-bS]

interaction score (P9-AA; mean of both orientations): -1.38
interaction score (P3-AA): -1.46
interaction score (P4-AA; mean of both orientations): 2.28
interaction score (P7-AA): -1.27
interaction score (zCON9_B; mean of both orientations): -1.33
interaction score (zCON9_A): -1.78
interaction score (P8-AA; mean of both orientations): -0.983
interaction score (zCON9_D): -2.08
Binder: DEIAALEAEIAALEAKNAALKAKNAALKG [P3-AA]

interaction score (P9-AA; mean of both orientations): -0.901
interaction score (P3-AA; mean of both orientations): -1.95
interaction score (P4-AA; mean of both orientations): -2.36
interaction score (P7-AA): -0.655
interaction score (P10-AA): -0.802
interaction score (P11-AA): -1.25
interaction score (GCN2_T): -1.54
interaction score (P2-AA): -1.88
interaction score (AP8-AA): -1.59
interaction score (AP7-AA): -1.62
interaction score (P8-AA; mean of both orientations): -1.22
interaction score (P12-AA): -1.57
interaction score (P1-AA): -1.88
Binder: DEEAALEAKAAALKAELAANEAKLAAAKG [AP6-AA]
